Patent US20130288372A1 (Bristol-Myers Squibb, published 2013)

T1: Human IL-23 (human, UniProt Q9NPF7 20-189; P29460 23-328)
T1 construct: Heterodimer of p40 and p19; For the crystal it was secreted from insect cells from a bi-cistronic construct; also called interleukin 23; human recombinant IL-23
T1 sequence (looked up) 1: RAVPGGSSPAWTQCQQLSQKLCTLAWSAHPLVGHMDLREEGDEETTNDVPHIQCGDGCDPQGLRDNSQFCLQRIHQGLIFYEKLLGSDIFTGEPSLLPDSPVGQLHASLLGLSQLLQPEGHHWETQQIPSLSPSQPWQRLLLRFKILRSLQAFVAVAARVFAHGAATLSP
T1 sequence (looked up) 2: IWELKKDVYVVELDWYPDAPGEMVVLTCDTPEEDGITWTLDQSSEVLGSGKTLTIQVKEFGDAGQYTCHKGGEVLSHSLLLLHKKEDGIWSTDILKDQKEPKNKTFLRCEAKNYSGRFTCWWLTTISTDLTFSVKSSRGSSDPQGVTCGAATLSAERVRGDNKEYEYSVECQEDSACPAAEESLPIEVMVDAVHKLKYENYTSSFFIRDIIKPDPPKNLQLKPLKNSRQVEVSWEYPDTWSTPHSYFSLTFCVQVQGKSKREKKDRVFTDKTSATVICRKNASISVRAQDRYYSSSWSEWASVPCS


Assays:
Human IL-23 [1] = molecular target: T1, Human IL-23; experiment: competitive ELISA, ratio of IC50 against parent 1454B08
Description: (§1) Adnectin variants were tested by ELISA for their ability to bind IL-23 in a manner that was competitive with the binding site of the native IL-23 receptor (IL-23R). Recombinant human IL-23R-Fc (R&D Systems, Minneapolis, Minn.) was coated overnight at 4° C. on a NUNC® Maxisorp plate (Thermo Fisher Scientific, Denmark) with 50 μL at 4 μg/mL in PBS. All washing was performed with PBST (PBS with 0.05% (w/v) Tween) using an automated plate washer (Biotek, Vt.). OptEIA buffer (BD Bioscience, CA) was used as block and assay diluent. Adnectin dilutions ranging from 200 nM to 28 pM were pre-incubated with 1 nM IL-23 for an hour before transferring to blocked IL-23R-Fc coated plates for 30 minutes. Bound IL-23 was detected via anti-IL-23 (GeneTex, CA) and anti-mouse-HRP (R&D Systems, MN) followed by TMB (3,3′,5,5′-tetramethylbenzidine) (BD Bioscience, CA) addition. Typical development time was 10 minutes. […] IC50s were generated from the average of four runs with an in-house curve fitting application.

Human IL-23 [2] = molecular target: T1, Human IL-23; experiment: competitive ELISA: Adnectin pre-incubated with 1 nM IL-23, binding to coated IL-23R-Fc
Description: as §1

Human IL-23 [3] = molecular target: T1, Human IL-23; experiment: SPR (Biacore T100), Adnectin captured by anti-His mAb, IL-23 injected, 25 C
Description: The anti-His antibody, mAb050 (RnD Systems, MN) was diluted to 20 μg/mL in acetate, pH 5.0 and immobilized to ˜9000 RU on flow cells 1 and 2 of a CM5 chip surface (GE Healthcare, Piscataway, N.J.) according to the manufacturer's instructions. All surface plasmon experiments were conducted in HBS-EP (10 mM Hepes 150 mM NaCl 3 mM EDTA 0.05% Surfactant P20) at 25° C. IL-23 was injected over anti-His mAb captured Adnectins for 2 minutes followed by a 10 minute dissociation phase. Kinetic parameters were calculated using the T100. Biaevaluation.

| Binder | Activity (parent/mutant) (Human IL-23 [1]) | IC50 (Human IL-23 [2]) [nM] | Kd (Human IL-23 [3]) [nM] | koff (Human IL-23 [3]) [s⁻¹] | kon (Human IL-23 [3]) [M⁻¹ s⁻¹] |
| --- | --- | --- | --- | --- | --- |
| 1454B08 P87→A (designed binder, Point variant of 1454B08) MGVSDVPRDLEVVAATPTSLLISWEHDYPYRRYYRITYGETGGNSPVQEFTVPKDVDTATISGLKPGVDYTITVYAVTSSYKYDMQYSAISINYRTEIDKPSQHHHHHH | 0.1 | 8.3 | – | – | – |
| 1454B08 V75→K (designed binder, Point variant of 1454B08) MGVSDVPRDLEVVAATPTSLLISWEHDYPYRRYYRITYGETGGNSPVQEFTVPKDVDTATISGLKPGVDYTITVYAKTSSYKYDMQYSPISINYRTEIDKPSQHHHHHH | 0.2 | 5.7 | – | – | – |
| 1454B08 T35→D (designed binder, Point variant of 1454B08; also called Thr35→Asp) MGVSDVPRDLEVVAATPTSLLISWEHDYPYRRYYRIDYGETGGNSPVQEFTVPKDVDTATISGLKPGVDYTITVYAVTSSYKYDMQYSPISINYRTEIDKPSQHHHHHH | 0.02 | 49 | – | – | – |
| Anti-IL-23 Adnectin 1454B05 (designed binder, 10Fn3-based Adnectin expressed in E. coli followed by a HIS6 tag; Fn3 domain is positions 3-96 of the entry) MGVSDVPRDLEVVAATPTSLLISWYHDYPYRRYYRITYGETGGNSPVQEFTVPKDEETATISGLKPGVDYTITVYAVTSSYKYDMQYSPISINYRTEIDKPSQHHHHHH | – | – | 2.27 | 0.000677 | 298000 |
| 1454B08 Y73→Q (designed binder, Point variant of 1454B08; also called Tyr 73→Gln) MGVSDVPRDLEVVAATPTSLLISWEHDYPYRRYYRITYGETGGNSPVQEFTVPKDVDTATISGLKPGVDYTITVQAVTSSYKYDMQYSPISINYRTEIDKPSQHHHHHH | 3.8 | 0.26 | – | – | – |
| 1454B08 Y73→N (designed binder, Point variant of 1454B08) MGVSDVPRDLEVVAATPTSLLISWEHDYPYRRYYRITYGETGGNSPVQEFTVPKDVDTATISGLKPGVDYTITVNAVTSSYKYDMQYSPISINYRTEIDKPSQHHHHHH | 0.8 | 1.2 | – | – | – |
| Anti-IL-23 Adnectin 1454F07 (designed binder, 10Fn3-based Adnectin expressed in E. coli followed by a HIS6 tag; Fn3 domain is positions 3-96 of the entry) MGVSDVPRDLEVVAATPTSLLISWYHMYSYRRYYRITYGETGGNSPVQEFTVPRDVDTATISGLKPGVDYTITVYAVTSSYKYDMQYSPISINYRTEIDKPSQHHHHHH | – | – | 9.43 | 0.000447 | 47400 |
| 1454B08 V45→D (designed binder, Point variant of 1454B08) MGVSDVPRDLEVVAATPTSLLISWEHDYPYRRYYRITYGETGGNSPDQEFTVPKDVDTATISGLKPGVDYTITVYAVTSSYKYDMQYSPISINYRTEIDKPSQHHHHHH | 1.2 | 0.83 | – | – | – |
| 1454B08 T35→N (designed binder, Point variant of 1454B08) MGVSDVPRDLEVVAATPTSLLISWEHDYPYRRYYRINYGETGGNSPVQEFTVPKDVDTATISGLKPGVDYTITVYAVTSSYKYDMQYSPISINYRTEIDKPSQHHHHHH | 0.6 | 1.7 | – | – | – |
| 1454B08 T35→Q (designed binder, Point variant of 1454B08) MGVSDVPRDLEVVAATPTSLLISWEHDYPYRRYYRIQYGETGGNSPVQEFTVPKDVDTATISGLKPGVDYTITVYAVTSSYKYDMQYSPISINYRTEIDKPSQHHHHHH | 1 | 1 | – | – | – |
| 1454B08 V75→Y (designed binder, Point variant of 1454B08) MGVSDVPRDLEVVAATPTSLLISWEHDYPYRRYYRITYGETGGNSPVQEFTVPKDVDTATISGLKPGVDYTITVYAYTSSYKYDMQYSPISINYRTEIDKPSQHHHHHH | 0.4 | 2.2 | – | – | – |
| 1454B08 V75→Q (designed binder, Point variant of 1454B08) MGVSDVPRDLEVVAATPTSLLISWEHDYPYRRYYRITYGETGGNSPVQEFTVPKDVDTATISGLKPGVDYTITVYAQTSSYKYDMQYSPISINYRTEIDKPSQHHHHHH | 0.4 | 2.3 | – | – | – |
| 1454B08 V45→E (designed binder, Point variant of 1454B08) MGVSDVPRDLEVVAATPTSLLISWEHDYPYRRYYRITYGETGGNSPEQEFTVPKDVDTATISGLKPGVDYTITVYAVTSSYKYDMQYSPISINYRTEIDKPSQHHHHHH | 1.9 | 0.51 | – | – | – |
| 1454B08 Y73→R (designed binder, Point variant of 1454B08) MGVSDVPRDLEVVAATPTSLLISWEHDYPYRRYYRITYGETGGNSPVQEFTVPKDVDTATISGLKPGVDYTITVRAVTSSYKYDMQYSPISINYRTEIDKPSQHHHHHH | 0.8 | 1.2 | – | – | – |
| 1454B08 V45→N (designed binder, Point variant of 1454B08) MGVSDVPRDLEVVAATPTSLLISWEHDYPYRRYYRITYGETGGNSPNQEFTVPKDVDTATISGLKPGVDYTITVYAVTSSYKYDMQYSPISINYRTEIDKPSQHHHHHH | 1.8 | 0.54 | – | – | – |
| 1454B08 Y73→A (designed binder, Point variant of 1454B08) MGVSDVPRDLEVVAATPTSLLISWEHDYPYRRYYRITYGETGGNSPVQEFTVPKDVDTATISGLKPGVDYTITVAAVTSSYKYDMQYSPISINYRTEIDKPSQHHHHHH | 1.5 | 0.65 | – | – | – |
| Anti-IL-23 Adnectin 1454F09 (designed binder, 10Fn3-based Adnectin expressed in E. coli followed by a HIS6 tag; Fn3 domain is positions 3-96 of the entry) MGVSDVPRDLEVVAATPTSLLISWDHNYSYRRYYRITYGETGGNSPVQEFTVPRHTDTATISGLKPGVDYTITVYAVTSSYKYDMQYSPISINYRTEIDKPSQHHHHHH | – | – | 7.45 | 0.000928 | 125000 |
| 1454B08 V45→Q (designed binder, Point variant of 1454B08) MGVSDVPRDLEVVAATPTSLLISWEHDYPYRRYYRITYGETGGNSPQQEFTVPKDVDTATISGLKPGVDYTITVYAVTSSYKYDMQYSPISINYRTEIDKPSQHHHHHH | 2.9 | 0.34 | – | – | – |
| 1454B08 Y81→A (designed binder, Point variant of 1454B08) MGVSDVPRDLEVVAATPTSLLISWEHDYPYRRYYRITYGETGGNSPVQEFTVPKDVDTATISGLKPGVDYTITVYAVTSSYKADMQYSPISINYRTEIDKPSQHHHHHH | 0.03 | 35 | – | – | – |
| Anti-IL-23 Adnectin 1454E09 (designed binder, 10Fn3-based Adnectin expressed in E. coli followed by a HIS6 tag; Fn3 domain is positions 3-96 of the entry) MGVSDVPRDLEVVAATPTSLLISWMHDYPYRRYYRITYGETGGNSPVQEFTVPMEEDTATISGLKPGVDYTITVYAVTSSYKYDMQYSPISINYRTEIDKPSQHHHHHH | – | – | 10.1 | 0.000569 | 56600 |
| Anti-IL-23 Adnectin 1454F05 (designed binder, 10Fn3-based Adnectin expressed in E. coli followed by a HIS6 tag; Fn3 domain is positions 3-96 of the entry) MGVSDVPRDLEVVAATPTSLLISWYMHYPYSRYYRITYGETGGNSPVQEFTVPKQHDTATISGLKPGVDYTITVYAVTSSYKYDMQYSPISINYRTEIDKPSQHHHHHH | – | – | 4.75 | 0.000525 | 111000 |
| 1454B08 T35→E (designed binder, Point variant of 1454B08) MGVSDVPRDLEVVAATPTSLLISWEHDYPYRRYYRIEYGETGGNSPVQEFTVPKDVDTATISGLKPGVDYTITVYAVTSSYKYDMQYSPISINYRTEIDKPSQHHHHHH | 1.7 | 0.6 | – | – | – |
| 1454B08 Y28→A (designed binder, Point variant of 1454B08) MGVSDVPRDLEVVAATPTSLLISWEHDYPARRYYRITYGETGGNSPVQEFTVPKDVDTATISGLKPGVDYTITVYAVTSSYKYDMQYSPISINYRTEIDKPSQHHHHHH | 0.08 | 13 | – | – | – |
